Reference: paper PMC10843684 (Molecular cell, 2023)

How the values were obtained:
Assay in all cases: cryo-EM structure
Chelator-GID^SR4 = Chelator-GID^SR4 (S. cerevisiae, UniProt P53076 1-958; P40208 1-455; P40547 1-921; P38263 1-362; Q12508 1-421; P40492 …)
[1] = target: T1, RMND5A (RING subunit of the CTLH E3 catalytic module) (human, UniProt Q9H871 1-391)
T1 sequence: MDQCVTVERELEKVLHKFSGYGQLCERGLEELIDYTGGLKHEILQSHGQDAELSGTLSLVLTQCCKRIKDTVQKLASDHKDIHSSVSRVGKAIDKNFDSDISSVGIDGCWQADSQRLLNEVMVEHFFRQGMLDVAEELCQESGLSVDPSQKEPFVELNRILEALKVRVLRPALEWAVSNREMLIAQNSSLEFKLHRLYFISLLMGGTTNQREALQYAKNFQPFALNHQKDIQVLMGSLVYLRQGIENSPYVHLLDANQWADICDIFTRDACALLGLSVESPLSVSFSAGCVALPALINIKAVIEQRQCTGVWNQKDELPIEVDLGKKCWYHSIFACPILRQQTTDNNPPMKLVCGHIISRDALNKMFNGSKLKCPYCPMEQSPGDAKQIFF

[2] = target: T2, MAEA (U-box subunit of the CTLH E3 catalytic module) (human, UniProt Q7L5Y9 1-396)
T2 sequence: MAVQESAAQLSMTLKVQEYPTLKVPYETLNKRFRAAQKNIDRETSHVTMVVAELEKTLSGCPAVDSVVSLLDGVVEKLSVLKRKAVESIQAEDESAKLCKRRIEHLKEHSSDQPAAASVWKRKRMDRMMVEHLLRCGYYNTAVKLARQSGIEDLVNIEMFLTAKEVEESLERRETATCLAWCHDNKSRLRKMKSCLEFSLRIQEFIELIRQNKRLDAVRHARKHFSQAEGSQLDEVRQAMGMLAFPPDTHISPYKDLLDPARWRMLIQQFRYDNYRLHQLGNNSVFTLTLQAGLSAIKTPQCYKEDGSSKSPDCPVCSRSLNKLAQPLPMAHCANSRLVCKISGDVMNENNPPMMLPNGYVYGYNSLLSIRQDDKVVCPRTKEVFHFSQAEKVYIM

B1: Fbp1-6xHis (fructose-1,6-bisphosphatase) (natural protein, S. cerevisiae)
chain: MPTLVNGPRRDSTEGFDTDIITLPRFIIEHQKQFKNATGDFTLVLNALQFAFKFVSHTIRRAELVNLVGLAGASNFTGDQQKKLDVLGDEIFINAMRASGIIKVLVSEEQEDLIVFPTNTGSYAVCCDPIDGSSNLDAGVSVGTIASIFRLLPDSSGTINDVLRCGKEMVAACYAMYGSSTHLVLTLGDGVDGFTLDTNLGEFILTHPNLRIPPQKAIYSINEGNTLYWNETIRTFIEKVKQPQADNNNKPFSARYVGSMVADVHRTFLYGGLFAYPCDKKSPNGKLRLLYEAFPMAFLMEQAGGKAVNDRGERILDLVPSHIHDKSSIWLGSSGEIDKFLDHIGKSQ
binding result (Chelator-GID^SR4): binds

B2: UBE2H C87K, insect cell-expressed and fully phosphorylated with CK2 (the E2 chain of the UBE2H~ubiquitin mimic) (enzyme, human, UniProt P62256 1-183, looked up)
chain: MSSPSPGKRRMDTDVVKLIESKHEVTILGGLNEFVVKFYGPQGTPYEGGVWKVRVDLPDKYPFKSPSIGFMNKIFHPNIDEASGTVKLDVINQTWTALYDLTNIFESFLPQLLAYPNPIDPLNGDAAAMYLHRPEEYKQKIKEYIQKYATEEALKEQEEGTGDSSSESSMSDFSEDEAQDMEL
modifications: phosphoserines 164, 165, 166, 168, 169, 171 and 174; K87 isopeptide-bonded to ubiquitin
binding result [1]: binds | binding result [2]: binds
